According to the DeepSol protein solubility set:

Assay: soluble on expression in E. coli; label from the status in PepcDB or PDB records

| Sequence | soluble on expression in E. coli |
| --- | --- |
| MLNNLLQQATSPNGRARQYAIEHTVELTNLIPPTVSYESGGHTLIIGPTMLIERITEPLSSMASITLLSVDGEPGTQSNLYYADTVEISGFLGAFSVNVENHGKRVNLAQAAIGGNSFDIVLDMSLNGLMSEEVPVPGYFPVGRGYPKLADALEEIPTLMGTFDKPKYFRLDPDLCAHSSRGVKGCERCVDACPAGALSSEGSEQTGHRIQINPYLCQGVGTCATACPTEAIHYALPNPTDTQKFIERLLANYHQAGGEKPIVLICSSRHESYNVMALKVLPDNVIPVVVEELPSVGIDSWFAALVNGATQVLFAASRHMPPTIQRILNQEMSMAQSLLTHLGLPKETIDILYLESLREGMPVLCEQPLGLKLGDLIGNKRERLFTALDALAETLNAQPSVQPLSISAPYGTIECQTSDCTLCMSCVAVCPTRALHLAGDSPALRFIEQDCVQCGLCVKACPEQVLSATPQLNWNKAARQGVVTLHQEEPAKCLRCHKPFAPQSMITMLQTKLRGHSHFATPEALNRIAMCEDCRVVDMFEAMAHDPEQQLKY | not soluble |
| MLNPDELVAIDIHTHAEEPCGCHADDGYDDFQARMAEYFGSPNKHPPTVPETAAYYRAKKIAAVIFPVDAERETGFRRYNNDEMIEITRQNSDVLIPFASIDPHKGKIGVREARRLIADYGIKGFKFHPTMQGFYANDRLAYPLYEAIQEGGAIALFHTGQTGVGSGMPGGMGMRLKYSNPMYMDDVAADFPDMKIVLAHPSFPWQEEALSVATHKPNVYIDLSGWSPKYFPPILVRYINSILQDKMLFGSDWPVITPDRWLSDFAKLEIREEVRAKVLKQNARKLLGIAAALEHHHHHH | not soluble |
| MLNRIIEHMNAHHVEDMKGLLKKFGQVHHAENVAFKSVDPQGIVIGYNHNQTLRIEFNHEVKDPKDYKNAIIELCQSVEKTHDLKGVEEEVKAFKESFDSVCLATLHPNGHVVCSYAPLMSDGKQYYIYVSEVAEHFAGLKNNPHNVEVMFLEDESKAKSAILRKRLRYKTNARFIERGAEFDKAFDSFIEKTGGAGGIKTIRAMQDFHLIALDFKEGRFVKGFGQAYDILGDKIAYVGDKGNPHNFAHKK | not soluble |
| MLNSRRIVVVLPAYNAEKTLEMTYAEIPFEHVDHVLLVDDASRDRTAQVAERLGIKTIVHDRNKGYGANQKTCYRAALDLGADIVIMVHPDYQYTPKLITAMAAMIAYGEFDAVLGSRILGIGALKGGMPLYKYVANRVLTLVENLLLSHKLSEYHTGYRAFSRQVLEQLPLDANGDDFVFDNQMLAQIIWHGYRIGELSCPTKYFEDASSINFRRSVIYGLGVLGTALEFRLARMGLIRSGRFTPRNDQAAAQLEHHHHHH | soluble |
| MLNYLFENNCLLCGKEVSPLRSLCENCEEKVLKNGPSFYREVHRKYELFVYSDYTDEIERIIRLYKYHGEVSLSGTLVKLFLKLYSYFPREANLITWVPSSLDSLEDRGFDHMRLLAKRISKELGIPFDAVLENVSEGRQVEKSKEERKRTGRFICKKDPPQNVILIDDVLTTGTSVRDCVETLFRNGVSKVFVYVLAKTRR | not soluble |
| MLPAEREQFIITFLKTNKKATIHDLALEFNVHEATIRRDLNKLEQYNQIKRTHGGVVLNDSEVWDELNFDDRETSYYDEKVAIGLKAAEFVENGDTLFIDSGSTTIHFARALTQKSNLTIITNDIHIASILKSTANQIIVTGGILYQDNYLLNGMITNETLKLFNPSKLFLATPAIDLEKGITHFNDTLASTKIQMVKQAKAVYVLTDSSKFDKVALYNVCSSDTIDVLITDQTNKNIDWQAYDNHFKHLITVHAEAHPELEHHHHHH | soluble |
| MLPCRANCFTLEISLMHINIAWQDVDTVLLDMDGTLLDLAFDNYFWQKLVPETWGAKNGVTPQEAMEYMRQQYHDVQHTLNWYCLDYWSEQLGLDICAMTTEMGPRAVLREDTIPFLEALKASGKQRILLTNAHPHNLAVKLEHTGLDAHLDLLLSTHTFGYPKEDQRLWHAVAEATGLKAERTLFIDDSEAILDAAAQFGIRYCLGVTNPDSGIAEKQYQRHPSLNDYRRLIPSLM | not soluble |
| MLPFANYYISSPSVSEKNAINNNVNKRRKKKRAMMVYGGGGGGDDLAVVKAAAWAWYLRKEGKPIMREFDVTRAQRIPRPSRYKIEATKNMILSENRVLAENRVSSTKSPLWYTNYQFRGDQETYYSRLLDTYETKNISKRLNIDDSSFSTSLSSVLKHNGDDHHNHNRNDDYGFDDHGLLKKRNGSDSNTTTRSKTNNDKSYNGGFMKKVSKRSLWKGMIVMGPGSTVCGRSDDVASQAGRRTVKVAVAAEALVRSAASGSGKTQSGHC | not soluble |
